According to patent US20070027082A1 (UNIVERSITY OF TENNESSEE RESEARCH FOUNDATION, published 2007):

Legend:
[1] = target: T1, type I IL-1 receptor on murine EL4 6.1 cells (murine) (UniProt P13504); experiment: competitive radioligand binding on EL4 6.1 cells, 100x excess of competitor
T1 sequence (looked up): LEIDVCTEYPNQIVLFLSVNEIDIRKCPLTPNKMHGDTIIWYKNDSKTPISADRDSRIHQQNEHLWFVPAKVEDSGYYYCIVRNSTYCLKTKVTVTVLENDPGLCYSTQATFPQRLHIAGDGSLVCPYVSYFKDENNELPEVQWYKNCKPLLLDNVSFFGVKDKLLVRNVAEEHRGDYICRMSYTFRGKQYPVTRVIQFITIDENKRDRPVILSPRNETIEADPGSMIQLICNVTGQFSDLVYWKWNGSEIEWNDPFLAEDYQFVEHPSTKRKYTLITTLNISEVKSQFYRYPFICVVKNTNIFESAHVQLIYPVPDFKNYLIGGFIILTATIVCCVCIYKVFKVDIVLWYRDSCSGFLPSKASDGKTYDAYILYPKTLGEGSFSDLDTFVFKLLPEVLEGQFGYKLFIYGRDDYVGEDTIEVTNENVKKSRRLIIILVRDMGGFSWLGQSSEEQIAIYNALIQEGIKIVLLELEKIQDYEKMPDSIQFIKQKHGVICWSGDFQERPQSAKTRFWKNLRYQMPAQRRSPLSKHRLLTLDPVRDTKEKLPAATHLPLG

[2] = target: T2, type I IL-1 receptor on murine EL4 6.1 cells (murine, UniProt P13504 20-576); experiment: competition with [125I] IL-1 beta for type I IL-1R on EL4 6.1 cells
T2 construct: whole, on cells; Endogenous receptor on the murine T cell line EL4 6.1; also called type I IL-1Rs; IL-1 receptors on murine EL4 6.1 cells
T2 sequence (looked up): T1 sequence (looked up)
Description: IL-1 beta for binding to type I IL-1 receptors on murine cells. EL46.1 cells were incubated at 4° C. in presence of the sodium azide for 2 hr with and without each of the IL-1ra peptides or with soluble human recombinant interleukin Ira (shrIL-1ra) as a control. Cells were then incubated with [¹²⁵I]hrIL-1, transferred to microfuge tubes containing phthalolate oil, centrifuged and free and bound radioactivity determined. Non-specific binding was determined in the presence of 100× excess concentration of cold hrIL-1 beta.

**Q.** “soluble human recombinant interleukin 1ra (shrIL-1ra) (from UniProt P18510 26-177) (ligand)” was tested. Which displacement of [125I] IL-1 beta [1] did it give?
**A.** The displacement of [125I] IL-1 beta was greater than 90%.

B1: IL-1ra peptide 1-35 (SEQ ID NO: 13) (peptide)
peptide: RPSGRKSSKMQAFRIWDVNQKTFYLRNNQLVAGYL
notes: Synthetic peptide representing part of the processed/mature form of human sIL-1ra; also called IL-1ra 1-35; amino terminal IL-1ra peptide
**Q.** Does B1 bind [2]?
**A.** Result: no binding
